This data set deals with MS2 coat protein. The data set is described as follows: apparent KD of MS2 coat protein; designed switch direction (-1 OFF switch, 1 ON switch): 1; higher = weaker reporter binding. In a few lines: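 The apparent KD reported per design is the median over clusters of curve fits to normalised cluster fluorescence. The RNA switches were transcribed on Illumina chips by stalled E. coli RNA polymerase. SNAP-549-labelled MS2 coat protein was titrated from 0.7 or 1.5 nM, doubling up to 3 µM, in Tris-HCl pH 7.5 buffer containing KCl, MgCl2, BSA, DTT, tRNA and Tween-20, with no input, 200 uM small-molecule ligand, or an oligonucleotide input.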

Where [1] appears, read: input ligand: microRNA oligo, concentration not stated.
Where [2] appears, read: Eterna round: R95, input ligand: FMN 200 uM.
Where [3] appears, read: Eterna round: R95, input ligand: microRNA oligo, concentration not stated.
Where [4] appears, read: Eterna round: R95, input ligand: none.

For the sequence “AACUAACAUGAGGAUCACCCAUGUUGCAGCGGUUGAGGAUAUGUGGGUGAAAAUAGCAUGGCAGAAGGCGAGUGUA [SameState1 Malc#25] (Eterna round: R96, puzzle: Same State 1)”, the “apparent KD of MS2 coat protein” value (input ligand: FMN 200 uM) was 407 nM, the “apparent KD of MS2 coat protein” value under setting [1] came out at 95.9 nM and the “apparent KD of MS2 coat protein” value (input ligand: none) was 208 nM.
Take “AAGAAAGACGCAGGAUAUCAGCGCAAAACACGCUGAGAAGGGUGAGACAUGAGGAUCACCCAUGUAACACGGCAAAACGCCGUG [Atinanor] (Eterna round: R96, puzzle: Same State NG 1)”: the “apparent KD of MS2 coat protein” value runs as follows: (input ligand: FMN 200 uM) 2190 nM; under setting [1], 122 nM; (input ligand: none) 1310 nM.
For “AAGAAAGACGCAGGAUAUCAGCGCAAACCGCACUGAGAAGGGUGAGACAUGAGGAUCACCCAUGUAACACGGCAAAACGCCGUG [Lausgeledi] (Eterna round: R96, puzzle: Same State NG 1)” the same measures were 1530 nM, 268 nM and 219 nM.
“AAGAAAUCCGCAGGAUAUCCUAAGCCGGACUUAGGAGAAGGGUGGCCACAUGAGGAUCACCCAUGUAAAAGCUGAAUCACAGCC [Vetianeste] (Eterna round: R96, puzzle: Same State NG 1)”: the “apparent KD of MS2 coat protein” value by setting is: (input ligand: FMN 200 uM) 554 nM; under setting [1], 385 nM; (input ligand: none) 497 nM.
For “AAGAAGACGAACAAGGAUAUGUCAAAGGAAACAUGAGGAUCACCCAUGUAGAGAUUGGAAAAGAAACAGAAGGUGUACAGAAAGA [JR_SS2_Sub005] (puzzle: Same State 2)”, the “apparent KD of MS2 coat protein” value is, setting by setting: under setting [2], 24.8 nM; under setting [3], 33.3 nM; under setting [4], 35.1 nM.
Turning to “AAGAGACAUGAGGAUCACCCAUGUUUGAAUAAUAUAGGAUAUAUACCACAUGUAAAAGAAAUAGAAGGAUAAGAAA [Default title] (puzzle: Same State 1)”, the “apparent KD of MS2 coat protein” value runs as follows: under setting [2], 77 nM; under setting [3], 114 nM; under setting [4], 534 nM.
With “AAGAUACAUGAGGAUCACCCAUGUCGAGAGAGACGAGGAUAUCUGAAUCGAUUAGAUUACGGAGAAGGCGUGAAAA [LROPPY Same State 1 - v07_deltaG=1.9] (Eterna round: R96, puzzle: Same State 1)”, the “apparent KD of MS2 coat protein” value reads like this: (input ligand: FMN 200 uM) 19.6 nM; under setting [1], 22.2 nM; (input ligand: none) 29.7 nM.
As for “AAGCUCGUGUGAGGAUAUGCCGCCGUUUCGGCUGCAGAAGGUGCUACGUUACAUGAGGAUCACCCAUGUCUCUGUUGUUUCGUC [salish99_SSNG1_r04_954] (Eterna round: R96, puzzle: Same State NG 1)”, the “apparent KD of MS2 coat protein” value under setting [1] amounted to 22.1 nM.
Consider “AAGGGCGGAAACAACAUGAGGAUCACCCAUGUUGCCGAAAGGCAGGAUAUCCGGCGAAAGCAGAAGGAGAAGGGUCAAGAACCA [AK SSNG3-V2-42.1] (Eterna round: R96, puzzle: Same State NG 3)”, for which the “apparent KD of MS2 coat protein” value runs as follows: (input ligand: FMN 200 uM) 39 nM; under setting [1], 16 nM; (input ligand: none) 22.5 nM.
Take “AAGUUACUAUCUCAGGAUAUCAUGUCAAAGACAUGAGGAUCACCCAUGUACCAGGAAACUGGUUAUGAGAAGGGAGAUAGUAACG [Mat - Same State 2 - Mod - D53] (puzzle: Same State 2)”: the “apparent KD of MS2 coat protein” value runs as follows: under setting [2], 497 nM; under setting [3], 149 nM; under setting [4], 443 nM.
For “AAUAAACAUGAGGAUCACCCAUGUAAUAUAAAUGGAGGAUAUGCAAUUAUUAAUUAUUAAGUAGAAGGUCGAAUAA [Lollin - Epsilon 1] (Eterna round: R96, puzzle: Same State 1)”, under setting [1], the “apparent KD of MS2 coat protein” value is 67.5 nM.
For the sequence “AAUAAACAUGAGGAUCACCCAUGUAAUAUAAAUGGAGGAUAUGCAAUUAUUAAUUAUUAAGUAGAAGGUCGAAUAA [Lollin - Epsilon 1] (puzzle: Same State 1)”, the “apparent KD of MS2 coat protein” value worked out at 62.1 nM under setting [2], 55.7 nM under setting [3] and 91.2 nM under setting [4].

The record behind these values is the supplement of paper PMC9170038.
